Experimental data published in patent publication US20240255522A1.

Columns and labels:
MHCII (DR) [1] = experiment: competition
MHCII (DR) [2] = experiment: competition ELISA
[3] = target: HLA-DRB1*01:01 MHCII molecule (human); experiment: competition ELISA; 25 nM huCLIP-bio
[4] = target: HLA-DRB1*01:01 MHCII molecule (human); experiment: competition ELISA; 50 nM huCLIP-bio
[5] = target: HLA-DRB1*01:01 MHCII molecule (human); experiment: competition ELISA; 25 nM, pp65 reference
[6] = target: HLA-DRB1*01:01 MHCII molecule (human); experiment: competition ELISA; 50 nM, pp65 reference

## LASV RNAP
MHCII (DR) [1]
  IC50: 517 nM

## LCMV RNAP
MHCII (DR) [1]
  IC50: 287 nM

## MOG (35-55)
MHCII (DR) [2]
  IC50: 2050 nM

## VETF (275-289)
MHCII (DR) [2]
  IC50: 983 nM

## OVA (323-339)
MHCII (DR) [2]
  IC50: 10700 nM

## LCMV NP (201-215)
MHCII (DR) [1]
  IC50: 1220 nM

## VV HP (23-37)
MHCII (DR) [2]
  IC50: 2020 nM

## mCLIP
MHCII (DR) [2]
  IC50: 268 nM
[3]
  IC50: 162 nM
[4]
  IC50: 429 nM
[5]
  IC50: 3.47 nM
[6]
  IC50: 7.83 nM
